Assays:
[1] = target: 重组人PD-L1-His (human, UniProt Q9NZQ7 19-238); assay: SPR, Biacore T200, PD-L1-His as analyte (reference antibody)
[2] = target: T1, 人PD-L1 on huPD-L1-CHO-S细胞 (human, UniProt Q9NZQ7 19-290); assay: flow cytometry on huPD-L1-CHO-S cells (reference antibody)
T1 construct: whole, on cells; also called 细胞表面PD-L1

[3] = target: T2, 重组人PD-L1-mFc (human, UniProt Q9NZQ7 19-238); assay: ELISA, plate coated with PD-L1-mFc, anti-human IgG Fc-HRP (reference antibody)
T2 construct: also called 人重组蛋白PD-L1-mFc; PD-L1蛋白
T2 sequence (Q9NZQ7 19-238 limits assumed): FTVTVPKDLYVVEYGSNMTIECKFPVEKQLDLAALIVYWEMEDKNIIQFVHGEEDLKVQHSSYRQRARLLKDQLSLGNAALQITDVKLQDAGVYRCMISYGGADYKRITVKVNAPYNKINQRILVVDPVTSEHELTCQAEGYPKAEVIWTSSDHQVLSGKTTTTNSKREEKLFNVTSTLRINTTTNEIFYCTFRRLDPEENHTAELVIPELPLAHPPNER

重组人PD-L1-His, sequence (Q9NZQ7 19-238 limits assumed): as above
T1 sequence (Q9NZQ7 19-290): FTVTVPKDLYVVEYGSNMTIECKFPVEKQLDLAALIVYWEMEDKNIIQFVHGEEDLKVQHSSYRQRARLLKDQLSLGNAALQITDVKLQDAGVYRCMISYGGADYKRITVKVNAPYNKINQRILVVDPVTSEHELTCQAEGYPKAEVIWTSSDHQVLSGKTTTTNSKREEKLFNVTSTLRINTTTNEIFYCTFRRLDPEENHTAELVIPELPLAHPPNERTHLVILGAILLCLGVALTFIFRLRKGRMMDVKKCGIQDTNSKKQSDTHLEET

- binding result [1]: binds
- binding result [2]: binds
- binding result [3]: binds
B1: 抗人PD-L1抗体D21-4 (antibody, V domains shown)
VH: EVQLVESGGGLVQPGGSLRLSCAASRTDRNINTMHWYRQAPGKGREWVGTIFIDLNTIVTDSVKGRFTISRDNAKNTLYLQMNTLRAEDTAVYYCAADVSGYGRAWGQGTTVTVSS
notes: also called 亲本抗体D21-4; 亲本PD-L1抗体D21-4; not shown: rest of the 'complete control antibody' (constant part / Fc) is not described
